According to the domain aggregation screens of Martell et al. (2025):

Assay: soluble fraction after stress (log2 fold change); higher = more stays soluble; pooled small domains, quantitative proteomics
Details: stress: 50 degC
Method in brief: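 Pooled custom libraries of small protein domains were each held under stress at 50°C. The read-out, high-throughput quantitative proteomics, tracked how much of each protein stayed soluble. This is reported as a base-two log fold change used to indicate aggregation propensity. Higher values mean more protein remains in solution.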

Row | Sequence | soluble fraction (log2)
1 | HMKFPNVGENLRLLRQEMGISLDKASKMTGVSKAMLGQIERGESSPTVSTLWKISSGFKINFTTLLSE | -2.38
2 | HMQARDQNVDEGKALLEKEFSRLALENLDRDKLANAVNYPTRDDMYAAIGAGDLRVGQVLHQAQQLF | 0.142
3 | HMPLITAIELDSISARSFQFNTQSGSTYFIEGSTDLKSWDVIAEVKATDSTTTYEDHRKIYHEAYFYRVRL | -2.01
4 | HMGESFEELAREISDDTGSKTEGGETGLFPRGVMAPQFEEAAFLLKVGDISEPIRTKFGYHIIKLKEIKP | -0.156
5 | HMLYGRRFQVEGLNLERYLRAAADSGIPLKGARRFGRTLTGVAAEEHMAALEALARQGGWLFTPLEAVGAN | -0.22
6 | HMNVDALIGTKGIVVQPIRPFAVGQVKVNGQVWSAVGKTPETDIEQGREVKVHAIEGVKLVVTPT | 0.251
7 | HMEDNYYENKINYLFGYLDEADKEISVNSILDFHLAHRTNPEFVFEPKKNTNPLIWKYLSNSNLLY | -0.0177
8 | HMNVYAGTMINVVGLQVEDAASRLRGLFYSVKIVEEESQEPDGKVLRQNIAEGTKDLEAWTLVELTVSKYV | -0.872
9 | HMNDVHELPYSSFIEMVERGHVISVTVKHINIEFESTKNENYRTIAPQAMTPPYLELLLKNKDSVKVTFLP | -1.69
10 | HMEYKNYYDSPVGRLELLSDGVSLTAVLFENQQGDGTREENTSLAIFKEATQWLDAYFKGDNPEITIPL | 0.0756
11 | HMTTKYMVLVNWVKEKVRTNELKTGEKLYSEHEFSRMFHMSRQTVRHGISILERENIVERRQGSGTFIKDA | -3.06
12 | HMETLGADLRALRKSRGLTLLDMAESLGRSVGWLSQVERDLSDPSISDLREIAELLGVPISMLFRH | -2.86
13 | HMGGSIDITTAPPGAKIYLDADYYGKTPKRLENISAGTYRLHLLHPEKGEVYRSVTLNEKNGTLKIDENLN | 0.124
14 | HMRITTKNYFKAISEVGFENLPEVLKKSHLVIEEKTNKGNDWGIYENDAEAKKVFDLAFDKLEEFIDRKED | 0.45
15 | HMGADGIPGKNGENGETSYVHFAYATSADGKTGFSTTDTVGKTYMGQYADFEKADSEDPTKYRWGKFQGP | 0.102
16 | HMNDIQIILQEAVARLPKKQQLVFNMKYFDHLKYQEISEILGTSVGGLKASYFQAVKKIENYIINKH | -2.38
17 | HMDKTTIKNEQKKQILIFAEMNLFFKAKDVAELLGLQASRARYLLQELVKDGKIQGIGNNKGRKYQLI | -0.438
18 | HMIAVLKQGVSKQQVENLITWFRSRGLDVHISEGKFQTIIGLIGDTSKVDIDLLNGLEIIESVKRI | -0.0376
19 | HMTKRTEPSILQNFDTEIAELIAKNRGISIMDALRIFLASKTHEMLENDEMKLWYFSPLAVFDMWENE | 0.088
20 | HMVLTYYSVLGVKTDATTEEIKSTYKQLAIRNHPDRGGSEEVMKMINLAAEILSDPKSRKEYDLSLDA | -2.87
21 | HMNPNYIKKLREKNQLTQEYLAAQIGVSRPTYAQIEQGQRGLTVTEAKKMADIFSLALDDFLAEKN | 0.0013
22 | HMNSVSIAPEMLNWVIAHIQMNSLPKQIVEHLTAWISGQKEPTFNQIEKVSRATGIPLGYFFLEQPPKE | -2.03
23 | HMFEPLTDREREVLQALADGLSDKEIAERLYISPATVRTHITAILGKLDANSRLQAVVVAARHNLVTL | -0.0803
24 | HMKLIIVPNLVGQSRRSVEISLQQIGLRIDTVYTEFNPDYPKGTVAWQFPKSGDHIKKGMGLQITVSQG | -0.522
25 | HMKIVQDIAFSDFLNEVEKDNVLDVNIKGDLINGNLADGRKFKTYTPYDPNLIEKLSNKNVTINVEPYN | 0.198

Row | Sequence | soluble fraction (log2)
26 | HMSVLLKEEGSLQLARHGAAYFIIYSAQEHPNQRRHLKISEEESNRIMEGTPIEEIFLAYSG | -0.291
27 | HMTGREIDQLFSVVNDLKAKGVGMVFISHHLDEIARIADSVSVLRDGGFVAEVPASTPEKKLVTLMVGRDI | -0.208
28 | HMAAPLTDRETEVLTLLARGLINKQIAEELHIGLTTVITHRRNIMEKLRVRSLAELILRAVAAGYVDAGR | -1.77
29 | HMGELDPKIIAQINTFLQGITKLIEHPGNKDAKKTALGALHKLTFDQNITANFGKQLGQLDQVIQSSEET | 0.112
30 | HMEITGKYKAKEDIKLKVIPLISSLDLQDIKQNTELEVKDTMNNWAYVTVQEKQGWVVLEKIEKVE | -0.0549
31 | HMFAQDQLFKKDNSKVDVKILEINTTEIKYKLFTYQDGPTITVAKKDVALIIYQNGVHEVIT | -2.15
32 | HMSSGKTGTITLQPKQTVYGITKQYKISEADLRKLNPQLDSNLKIGDKITLPLDNIQRYSDSSSNVAQT | 0.211
33 | HMDIGTYTVTASALNIRQYPTASSAKTGSYPNGSIVTIYEYLTDGSWGRTDDGWISMNYVSRRY | -2.01
34 | HMYAGTWTTESGQWKYRQDDGTYAKGWLQDTDGRWYYFDANGRMLSNTATPDGYQVGEDGAWVNH | -0.196
35 | HMLAQVSDEGPIRAMVEAVMARSTQQLEDYKNGKVKLRQYFFGEVMKAAKGKANPTVINKLLDEMLPETL | 0.255
36 | HMPRIYSITINPEKIRTVIGPGGKVIKDITAKTGTKIEIDDSGKVDIFSPDEEHARMAVEIINTLTEE | 0.14
37 | HMDRWSLLTLTTLAGGTLRFTELKRAIGDISQRMLAQTLRTLEREGYVSRKVYATIPPKVEYRLTALGQSL | -3.05
38 | HMKKAMIISTKRGTPAAELDKIIREFEAKGLSVTMIRGTDYNVFGLVGDTTVIDEKQVRANPYVENVQRV | 0.135
39 | HMEELTPLQKYVFDYESDISDEVDMRAIKGLENANDVYDYYANVRGWEGDPDLEDDLDNIYRQVKARFA | 0.0161
40 | HMVVGYRYVTNVANAVNFRQKPSASSTIITTIPYGTRIGYVEDANSEYARVKYDNMYGYVAKFYLSNYSPP | -3.27
41 | HMEGVSPQTVQEHIRRFIAAEDPASPLSDEALREALGNLGINASRRTVAKYRGEMGIPSSAQRKR | -0.053
42 | HMAQVSDDAELEKWADTAIDEHPKPVEEYRAGNAASINFLMGQVMKMSRGKANPGAVMQILKQKLD | 0.109
43 | HMTPVEVNARGVHVDFSKGGILLEDVVRHLILEALRASEWKRGPAAQLLGISKETLRYRMEKYRLYPP | -2.26
44 | HMSNLNHSFQYKKNIGRKISLTYLGRDNESISKIYELIDSNDSGILVKNKNVEIFIHYEKIVSAKIKVS | -0.943
45 | HMVAQEVPYSTFVMRLDRNEVDAVKIIDGNEIEGTFKSPNGDLVQFKTLIPYQDTELMPLLKQKGVRISGS | 0.386
46 | HMNQIDDADRKRVVDEVAGQFSSMSLTEMRSDREKLLSRIIPQVQTTLNRLGLQTIDVEGIAREVIARVG | 0.159
47 | HMIDTPQELARLLRLLDEQNFEAEILFHKLRPDLLHLWSKEHVTRIAEALDAFDYQMALTLLNASP | -2.23
48 | HMVDKDFKPLYASLERLDSTSIIEILDSNRIDYRIDQRSGALLVDADQIHQARLSLASAGMPA | -0.116
49 | HMDVPTSSITEVKKSPMDVFAQARKAETGVYIFNREKIAGVMLTKEQYEALVEELNTLRDTL | -0.438
50 | HMNIDEIFLTKNEIYFSFEYQKKSQLDRYSKIISLDHRIDKNTAYAYANKKQFLNFINLNIDYKIIDNSF | -2.65

Row | Sequence | soluble fraction (log2)
51 | HMVSQELIMLGNRIREYRKERGFSQEILAEKSGVSTNTISRIEGGQMAMSVGILQRIVKALGVDANVMLG | -0.332
52 | HMLEAKQIQDNWESLIKLIEDNFTGERKENLLKMYTHFQDRMMFAPASSKEHFHNAFPGGYVEHVL | -0.293
53 | HMKGWPDREQAEKIWQQGIDYAIEHHTMSPQIVKEYIFHTQGIARSAALIAARLPDMDTEKAYVLGLLHD | -0.214
54 | HMPAAPVFLQKDLLDAGLIGQADSAARREKLGKILGIGYGNGKVMLQRLNSFGIERDAFEQAVQE | 0.0718
55 | HMTKDYVVIYEGLAQTEAVEILGKLQEMGVSAKVDHNDSILVLKDEEDQIRMALATEGYPKS | -0.0917
56 | HMWKSEAGKKIIESLAQKYNKSNAQIILRWHIQMGYIVIPGARSENHIKENINIFDFKLTNEEINNILKLN | -0.345
57 | HMFIKVEVPDLTGMTLTEVRKALEEKNLKMGDIRPAGQTSLVAKVINQSPQAKMVVDEYSEVSIQFEE | -0.217
58 | HMKLARGEFEIMAKFIKEISGISLEQNKTYLIESRLSDLAESEGVKTFSDFFFKAKFNKILKEKIIDAI | -0.946
59 | HMATPYISMAGIGKSFGPVHALKSVNLTVYPGEIHALLGENGAGKSTLMKVLSGIHEPTKGTITINNIN | 0.384
60 | HMEKPTRNKLVEIIIQNKNVTTEQMANLLNISRRAVAKHIKKLQEEGIIRRIGPDFGGHWEIVK | 0.0258
61 | HMSLDAAAVASKLIKRLSKSPGRRFALDDLAVDVGLPHEQGRPLVRSALELLVRTQQAVEGPPNVFRLFF | -1.57
62 | HMANTVVMPNLLGKTMTEAKIELKELGIDITLKGSESSSKYSAGQIMEQNIAEGTKVEVGSSVEVTIAGS | -0.306
63 | HMKLHFTINGVHYTWYKQFIRGIQIRELGNIPREDELYLDLPDGWKDDFIEDDEIVDLARPGVEHFISRAK | -1.78
64 | HMDTLRPLGRYQNVHLTKQELTALQSEFSDWSERIERLSSYMASTGRKYQNHAATIRLWAEKDK | 0.13
65 | HMNQTTYTVLYSGMDPADTGKVLTALNEMGVDARTQGEDTVLVPADRADEIRLELAAQGYPTS | 0.0864
66 | HMSEFVIPLAKYNKALYTQVSLGMRFRMLFETEDSGVRRYMGTITGIGDLDPIRWKNSHWRNLQV | 0.111
67 | HMISDISEIEAIIVEVLKVFPNQLQEYLDGKEKILSFFVGQVMQRTKGRANPSLVNEILKEKIKN | 0.0377
68 | HMTPIELIEKTIELIENERKVQKLQQKELALKADIPFPTYKDFIYKKRASLENILKLFIALRLF | -0.342
69 | HMITERVPVPDLTGMPLMEAIKTLNSSKLQYQVVGSVIEGDENRIIDQTPKPDIMVSEKSIVLLYLETYRG | -0.509
70 | HMTEDADIERRLTGILASAGWYRSLAVEVKEGIVYLDGATASGNHRDWAGSLAAKTEGVVAVVNRIEVQP | -0.238
71 | HMGKKYVPGMAVKLSAVPLYAASTSKVPSTHVTGTYYLWDDEVVRGRLRITNLKSRVGISGQVTGWIDKDR | -1.23
72 | HMADASVTAYFKIAEDRLQGRLPDTFSEASLKARYQLTPAQLTAVLTRIAQEGWAERKPGYGWAFSSML | -1.4
73 | HMILKQTHIVQELTGPIRLQEYGVGIFQQISTKSALKKALKKNQITVDGVVGSTATFIKGGEIIIYHVTE | -2.75
74 | HMGYKDIDKLSGVDLAIYRFIVEHDEQIPYMRVRELARGAHVSNSSVMRFIRKIGYDSFPEFKVSLRS | 0.0102
75 | HMPVEHVWHIAENGQTSGPYSKARMGRMAQEGQLTRDTHVWTPGQDGWMRAGDVTELAQLFT | 0.0486
